According to PMC2114603:

Biological target: lymphoma 4.1-like protein (68/65-kD phosphoprotein doublet) of mouse T-lymphoma cells (mouse (endogenous in BW 5147))
Test: co-sedimentation
Settings: scale: gp 25 per 68/65-kD protein

Sequence of lymphoma 4.1-like protein (68/65-kD phosphoprotein doublet) of mouse T-lymphoma cells (mouse (endogenous in BW 5147)) (P48193 whole entry): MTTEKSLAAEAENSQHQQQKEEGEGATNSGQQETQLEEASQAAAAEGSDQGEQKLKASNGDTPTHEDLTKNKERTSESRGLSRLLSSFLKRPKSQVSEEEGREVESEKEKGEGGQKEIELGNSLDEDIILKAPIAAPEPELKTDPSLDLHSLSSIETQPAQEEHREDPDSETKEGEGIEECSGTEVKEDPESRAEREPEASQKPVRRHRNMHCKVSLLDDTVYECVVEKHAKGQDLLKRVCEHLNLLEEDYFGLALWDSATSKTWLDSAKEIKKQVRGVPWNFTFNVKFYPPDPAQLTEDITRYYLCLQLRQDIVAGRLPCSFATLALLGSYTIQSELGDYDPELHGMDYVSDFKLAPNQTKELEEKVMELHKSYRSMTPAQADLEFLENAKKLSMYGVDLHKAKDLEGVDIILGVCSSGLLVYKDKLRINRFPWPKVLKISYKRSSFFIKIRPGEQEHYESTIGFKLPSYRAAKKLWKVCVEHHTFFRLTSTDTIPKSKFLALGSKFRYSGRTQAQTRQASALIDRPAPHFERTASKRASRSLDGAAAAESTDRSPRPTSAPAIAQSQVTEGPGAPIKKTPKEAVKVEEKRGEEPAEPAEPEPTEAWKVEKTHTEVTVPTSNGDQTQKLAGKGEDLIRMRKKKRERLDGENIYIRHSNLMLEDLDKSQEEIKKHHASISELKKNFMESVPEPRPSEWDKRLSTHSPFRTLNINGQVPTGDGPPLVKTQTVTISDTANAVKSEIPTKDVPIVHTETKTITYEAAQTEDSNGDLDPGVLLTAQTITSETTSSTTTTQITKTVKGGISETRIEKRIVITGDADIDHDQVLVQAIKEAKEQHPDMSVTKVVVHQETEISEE

B1: Thy-1 glycoprotein (gp 25) of mouse T-lymphoma cells (natural protein)
chain: QKVTSLTACLVNQNLRLDCRHENNTKDNSIQHEFSLTREKRKHVLSGTLGIPEHTYRSRVTLSNQPYIKVLTLANFTTKDEGDYFCELQVSGANPMSSNKSISVYRDKLVKC
modifications: glycoprotein ([3H]glucosamine-labelled); 125I-labelled or unlabelled
- stoichiometry N: 4
